From patent US20230330254A1 (Regeneron, published 2023)
Where a chain is given by its changes, count along the chain named.

B1: REGN8051 (antibody, V domains shown)
VH: QVQLVESGGGVGQPGRSLRLSCAASGFTFSRNAMHWVRQAPGKGLEWVAVISYDGSNKHYADSVKGRFTISRDNSKNTLYLEMNSLRVEDTAVYYCAKGGIPFDYWGQGTLVTVSS
VL: DIVMTQSPLSSPVTLGQPASISCRSSQSLVHFDGNTYLSWLHQRPGQPPRLLIYKISNRFSGVPDRFSGSGAGTDFTLKISRVEPEDVGVYYCMHATQFPYTFGQGTKLEIK
notes: parental antibody without Q-tag; also called parent of REGN8070
B2: H4H30484P2 (antibody, V domains shown)
VH: EVQLVESGGGLVQPGGSLKLSCAASGFTFSGSAMHWVRQASGKGLEWVGRITSKANSYATAYDASVKGRFTISRDDSKNTAYLQMNSLKTEDTAVYYCTRQRFLEFLFLDYWGQGTLVTVSS
VL: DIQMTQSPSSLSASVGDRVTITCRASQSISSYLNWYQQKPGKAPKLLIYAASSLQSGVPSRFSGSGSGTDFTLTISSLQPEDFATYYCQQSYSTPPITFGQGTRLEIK
notes: parental antibody without Q-tag; also called parent of REGN5619
B3: REGN8052 (antibody, V domains shown)
VH: QVQLVESGGGVVQPARSLRLSCAASGFAFSRSAMHWVRQAPGKGLEWVAVISYDGSNKYYTDSVKGRFTISRDNSKNTLYLQMNTLRAEDTALYYCAKMYTTMDSFDYWGQGTLVTVSS
VL: DIQLTQSPSFLSASVGDRVTITCWASQGISSYLAWYQQKPGKAPKLLIYAASTLQSGVPSRFSGSGSGTEFTLTISSLQPEDFALYYCQQLNSYPRTFGQGTKVEIK
notes: parental antibody without Q-tag; also called parent of REGN8072
B4: H4H30452P (antibody, V domains shown)
VH: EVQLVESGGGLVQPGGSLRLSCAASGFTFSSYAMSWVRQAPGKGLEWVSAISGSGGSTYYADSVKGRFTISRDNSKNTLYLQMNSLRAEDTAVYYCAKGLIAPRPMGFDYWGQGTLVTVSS
VL: DIQMTQSPSSVSASVGDRVTITCRASQGINSWLAWYQQKPGKAPKLLIYAASSLQSGVPSRFSGSGSGTDFTLTISSLQPEDFATYYCHQADSFPYTFGQGTKLEIK
notes: parental antibody without Q-tag; also called parent of REGN7990
B5: H1M30345N (antibody, V domains shown)
VH: EVQLVESGGGLVKPGGSLRLSCAASGFIFSRYSMNWVRQAPGKGLEWVSSMSSNSKNTYYADSVKGRFTISRDNAKNSLFLQMNTLRAEDTAVYYCARDGYTLRAFDIWGQGTMVTVSS
VL: EIVLTQSPGTLSLSPGERDTLSCRASQSIAGRYVAWYQQKPGQAPRLLIYGASSRATGIPDRFSGSGSGTDFTLTISRLEPEDFAVYYCQQYGSSPWTFGQGTKVEIK
B6: H2aM30341N (antibody, V domains shown)
VH: QVQLQQWGAGLLKPSETLSLTCAVYGGSFSGYYWSWIRQPPGKGLEWIGEINHAGSTNYNPSLKSRITISVDTSKNQFSLKLSSVTAADTAVYYCARGWYYGSGSYHRNWFDPWGQGTLVTVSS
VL: B5 VL with D19A, I29V, A30Y, G31Y, R32S, V34L, S54N, S94N
notes: parent of H4H30341N (REGN9278 without Q-tag); also called parent of REGN9278
B7: REGN8070 (antibody, human IgG4 S228P, kappa, V domains shown)
VH: B1 VH
VL: DIVMTQSPLSSPVTLGQPASISCRSSQSLVHFDGNTYLSWLHQRPGQPPRLLIYKISNRFSGVPDRFSGSGAGTDFTLKISRVEPEDVGVYYCMHATQFPYTFGQGTKLEIKR
notes: IgG4; Q-tag on light chain N-terminus; also called mAb 16; REGN8070 unconjugated Ab
B8: REGN8072 (antibody, human IgG4 S228P, kappa, V domains shown)
VH: B3 VH
VL: DIQLTQSPSFLSASVGDRVTITCWASQGISSYLAWYQQKPGKAPKLLIYAASTLQSGVPSRFSGSGSGTEFTLTISSLQPEDFALYYCQQLNSYPRTFGQGTKVEIKR
notes: IgG4; Q-tag on light chain N-terminus; also called mAb 4; REGN8072 unconjugated Ab
B9: REGN9278 (antibody, human IgG4 S228P, kappa, V domains shown)
VH: B6 VH
VL: EIVLTQSPGTLSLSPGERATLSCRASQSVYYSYLAWYQQKPGQAPRLLIYGASNRATGIPDRFSGSGSGTDFTLTISRLEPEDFAVYYCQQYGNSPWTFGQGTKVEIKR
notes: IgG4; Q-tag on light chain N-terminus; also called mAb 19; REGN9278 unconjugated Ab
B10: REGN9267 (antibody, human IgG4 S228P, kappa)
heavy: not shown
light: EIVLTQSPGTLSLSPGERDTLSCRASQSIAGRYVAWYQQKPGQAPRLLIYGASSRATGIPDRFSGSGSGTDFTLTISRLEPEDFAVYYCQQYGSSPWTFGQGTKVEIKRTVAAPSVFIFPPSDEQLKSGTASVVCLLNNFYPREAKVQWKVDNALQSGNSQESVTEQDSKDSTYSLSSTLTLSKADYEKHKVYACEVTHQGLSSPVTKSFNRGEC
notes: IgG4; Q-tag on heavy chain N-terminus; also called mAb 5; REGN9267 unconjugated Ab
B11: REGN7988-M3190 (antibody, human IgG4 S228P, kappa, V domains shown)
VH: QVQLVESGGGVVQPGRSLRLSCAASGFTFSGYGIHWVRQAPGKGLVWVAVIWYDGSFKYYADSVKGRFTISRDNSKNTLYLQMNSLRAEDTAVYYCARGDSSSSGRYYYYGMDVWGQGTTVTVSS
VL: DIQMTQSPSSLSASVGDRVTITCRASQGIRNDLGWYQQKPGTAPKRLIFAASSLQSGVPSRFSGSGSGTEFTLTISSLQPEDFATYYCLQHNNYPPTFGGGTKVEIKR
modifications: linker-payload M3190 (LP11) on Gln 3 of the N-terminal Q-tag LLQGSG
B12: REGN9278-M3190 (antibody, human IgG4 S228P, kappa, V domains shown)
VH: B6 VH
VL: B9 VL
modifications: linker-payload M3190 (LP11) on Gln 3 of the N-terminal Q-tag LLQGSG
notes: antibody-tethered drug conjugate; also called REGN9278 ATDC
B13: COMP Anti-GLP1R mAb1 conjugated to LP4 (antibody, human IgG4 S228P, kappa, V domains shown)
VH: QVTLKESGPGILQPSQTLSLTCSFSGFSLSTSGTGVGWIRQPSGKGLEWLSHIWWDDVKRYNPALKSRLTISRDTSYSQVFLRIASVDTADTATYYCARILDGTGPMDYWGQGTSVTVSS
VL: QIVLTQSPAIMSASPGEKVTMTCSASSRVTYMHWYQQRSGTSPKRWIYDTSKLASGVPARFSGSGSGTSYSLTISSMEAEDAATYYCQQWGNNPQYTFGGGTRLEIKR
modifications: azido-PEG3-amine on the Gln of the N-terminal Q-tag LLQGSG, clicked to LP4 (DIBAC-suc-PEG24-P9)
B14: COMP Anti-GLP1R mAb1 conjugated to LP1 (antibody, human IgG4 S228P, kappa, V domains shown)
VH: B13 VH
VL: B13 VL
modifications: azido-PEG3-amine on the Gln of the N-terminal Q-tag LLQGSG, clicked to LP1 (DIBAC-suc-PEG4-P9)
B15: COMP Anti-GLP1R mAb1 conjugated to LP2 (antibody, human IgG4 S228P, kappa, V domains shown)
VH: B13 VH
VL: B13 VL
modifications: azido-PEG3-amine on the Gln of the N-terminal Q-tag LLQGSG, clicked to LP2 (DIBAC-suc-PEG8-P9)
B16: COMP Anti-GLP1R mAb1 conjugated to LP3 (antibody, human IgG4 S228P, kappa, V domains shown)
VH: B13 VH
VL: B13 VL
modifications: azido-PEG3-amine on the Gln of the N-terminal Q-tag LLQGSG, clicked to LP3 (DIBAC-suc-PEG12-P9)

The binders below were run against T1, N-terminal ectodomain of human GLP1R expressed with a myc-myc hexahistidine tag (human, UniProt P43220 24-145, limits assumed) (assay: SPR, captured via anti-hFc, 25 C).
T1 construct: extracellular domain; also called hGLP1R-MMH; hGLP1R.mmh
T1 sequence (P43220 24-145 limits assumed): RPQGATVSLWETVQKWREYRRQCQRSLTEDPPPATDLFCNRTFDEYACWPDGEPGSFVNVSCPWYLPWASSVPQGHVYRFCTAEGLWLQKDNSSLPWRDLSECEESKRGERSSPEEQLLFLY

Compared with B1, B2 is lower in “90 nM hGLP1R.mmh Bound (RU)” value: 73.7 RU for the first, 26 RU for the second.

First: B3
Second: B4
The “90 nM hGLP1R.mmh Bound (RU)” value of the first is higher: 98.7 RU for the first, 88.9 RU for the second.

First: B5
Second: B6
The “90 nM hGLP1R.mmh Bound (RU)” value of the first is higher: 61.7 RU for the first, 48.4 RU for the second.

Compared with B1, B2 is 53-fold higher in Kd: 3.41 nM for the first, 181 nM for the second. The first binds more tightly here.

B3 and B4 are within 1.5-fold of each other in Kd: 5.49 nM for the first, 5.4 nM for the second.

Going from B5 to B6, the Kd rises from 0.16 nM to 0.346 nM (2.2-fold).

First: B1
Second: B2
The koff of the first is 180-fold lower: 0.000211 s⁻¹ for the first, 0.039 s⁻¹ for the second.

Going from B4 to B6, the koff falls from 0.00118 s⁻¹ to 7.74e-05 s⁻¹ (15-fold).

First: B1
Second: B2
The kon of the first is 3.5-fold lower: 61900 M⁻¹ s⁻¹ for the first, 215000 M⁻¹ s⁻¹ for the second.

B4 and B6 are within 1.5-fold of each other in kon: 218000 M⁻¹ s⁻¹ for the first, 224000 M⁻¹ s⁻¹ for the second.

First: B1
Second: B2
The t1/2 of the first is 180-fold higher: 54.7 min for the first, 0.3 min for the second.

B3 and B4 are within 1.5-fold of each other in t1/2: 9.6 min for the first, 9.8 min for the second.

B5 and B6 are within 1.5-fold of each other in t1/2: 102 min for the first, 149 min for the second.

What follows are binders tested against T2, full-length human GLP1R on HEK293/CRE-Luc/hGLP1R cells (human, UniProt P43220 24-463) (assay: flow cytometry, hGLP1R cells).
T2 construct: whole, on cells

First: B1
Second: B7
The EC50 of the first is 2.1-fold higher: 7.39 nM for the first, 3.44 nM for the second.

First: B2
Second: B3
The EC50 of the first is 2.8-fold higher: 1.98 nM for the first, 0.705 nM for the second. The second is the more potent here.

B8 and B4 are within 1.5-fold of each other in EC50: 1.42 nM for the first, 1.68 nM for the second.

First: B5
Second: B9
The EC50 of the first is 2.6-fold lower: 1.64 nM for the first, 4.21 nM for the second.

Compared with B6, B10 is 2.9-fold lower in EC50: 2.75 nM for the first, 0.944 nM for the second.

First: B1
Second: B7
The “Flow S/N” value of the first is higher: 560 fold for the first, 322 fold for the second.

Going from B2 to B4, the “Flow S/N” value falls from 208 fold to 115 fold.

Going from B9 to B6, the “Flow S/N” value rises from 436 fold to 595 fold.

What follows are binders tested against T2, full-length human GLP1R on … (assay: cell-based or functional assay).

First: B11
Second: B12
The “CRE-luc EC50” value of the first is 3.5-fold lower: 0.107 nM for the first, 0.376 nM for the second.

Going from B11 to B12, the “CRE-luc Relative Potency (% M2361 EC50)” value falls from 15.1% to 4.3%.

Compared with B11, B12 is lower in “CRE-luc Relative Signal:Noise (% M2361)” value: 140% for the first, 115% for the second.

First: B11
Second: B12
The “CRE-luc S/N” value of the first is higher: 90.1 fold for the first, 73.8 fold for the second.

The binders below were run against T3, full-length cynomolgus GLP1R on HEK293/CRE-Luc/mfGLP1R cells (cynomolgus, UniProt F8V479 24-463) (assay: flow cytometry, mfGLP1R cells).
T3 construct: whole, on cells

First: B1
Second: B7
The EC50 of the first is 2-fold higher: 4.12 nM for the first, 2.05 nM for the second. The second is the more potent here.

Going from B2 to B3, the EC50 rises from 0.963 nM to 2.13 nM (2.2-fold).

B5 and B9 are within 1.5-fold of each other in EC50: 3.54 nM for the first, 2.49 nM for the second.

Going from B6 to B10, the EC50 falls from 2.1 nM to 0.668 nM (3.1-fold). The second is the more potent here.

Compared with B1, B7 is lower in “Flow S/N” value: 494 fold for the first, 246 fold for the second.

First: B2
Second: B9
The “Flow S/N” value of the first is lower: 284 fold for the first, 548 fold for the second.

With B6 the “Flow S/N” value was 646 fold.

Target: T1, N-terminal ectodomain of human GLP1R …
Experiment: SPR, captured via anti-hFc, 25 C
Remark: another data set of the same source

With B12 the “90 nM hGLP1R.mmh Bound (RU)” value was 55.7 RU.

Binder B12 has a Kd of 1.1 nM.

In the case of B12, the koff is reported as 0.000127 s⁻¹.

B12 showed a kon of 116000 M⁻¹ s⁻¹.

Binder B12 has a t1/2 of 91 min.

Target: T2, full-length human GLP1R on …
Experiment: cell-based or functional assay
Remark: another data set of the same source

Compared with B13, B14 is 2.2-fold lower in “CRE-luc EC50” value: 0.0629 nM for the first, 0.0282 nM for the second.

Compared with B15, B16 is 2-fold higher in “CRE-luc EC50” value: 0.0217 nM for the first, 0.044 nM for the second.

Going from B13 to B14, the “CRE-luc Relative Potency (% P8 EC50)” value rises from 55.3% to 96.7%.

Going from B15 to B16, the “CRE-luc Relative Potency (% P8 EC50)” value falls from 126% to 62.1%.

Going from B13 to B14, the “CRE-luc Relative Signal:Noise (% P8)” value rises from 87.4% to 90.3%.

Going from B15 to B16, the “CRE-luc Relative Signal:Noise (% P8)” value rises from 96.4% to 115%.

First: B13
Second: B14
The “CRE-luc S/N” value of the first is higher: 284 fold for the first, 213 fold for the second.

Compared with B15, B16 is higher in “CRE-luc S/N” value: 227 fold for the first, 272 fold for the second.
